Measurements taken from publication PMC2686732, “Both Ca^2+ and Zn^2+ are essential for S100A12 protein oligomerization and function” (BMC Biochemistry, 2009).

What was measured:
[1] = target: the molecule itself; experiment: native gel or EMSA; native PAGE, 7.5% gel, Tris-glycine pH 8.8, 14 ug S100A12 in 2 mM Ca
[2] = target: the molecule itself; experiment: native gel or EMSA; native PAGE, 7.5% gel, Tris-glycine pH 8.8, 14 ug S100A12 with 5 uM Zn
[3] = target: the molecule itself; experiment: SEC; Superdex 200, 50 mM Tris-HCl pH 7.5, 200 mM NaCl, 20 C, 1 mg/ml injected; no ions added
[4] = target: the molecule itself; experiment: native gel or EMSA; native PAGE, S100A12 in the presence of both Ca and Zn (also with the copper I chelator BCS)
[5] = target: the molecule itself; experiment: native gel or EMSA; native PAGE, S100A12 with zinc and calcium plus TPEN (zinc chelator) or EDTA (divalent ion chelator)
[6] = target: T1, Human RAGE-Fc fusion protein (human, UniProt Q15109 23-342); experiment: SPR; S100A12 immobilised (2,933 RU) by amine coupling on CM5; RAGE/Fc (125 nM) injected 3 min at 30 ul/min; HBS-P buffer with 1 mM Ca2+ and 20 uM Zn2+; 1:1 Langmuir model; details: both partners purified
T1 construct: RAGE (Receptor for Advanced Glycation End products), human; also called recombinant human RAGE/Fc; source: bought: R&D Systems
T1 sequence (Q15109 23-342): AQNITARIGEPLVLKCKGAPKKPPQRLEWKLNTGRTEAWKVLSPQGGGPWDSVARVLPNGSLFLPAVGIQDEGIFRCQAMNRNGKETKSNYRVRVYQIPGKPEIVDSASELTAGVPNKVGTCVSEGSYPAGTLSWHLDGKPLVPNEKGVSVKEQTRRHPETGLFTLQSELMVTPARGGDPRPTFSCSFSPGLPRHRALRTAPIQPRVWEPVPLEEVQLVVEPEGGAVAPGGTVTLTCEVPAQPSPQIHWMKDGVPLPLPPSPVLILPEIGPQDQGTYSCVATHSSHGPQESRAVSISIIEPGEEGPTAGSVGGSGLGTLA

B1: Recombinant full-length human S100A12 (natural protein, UniProt P80511 1-92, looked up)
chain: MTKLEEHLEGIVNIFHQYSVRKGHFDTLSKGELKQLLTKELANTIKNIKDKAVIDEIFQGLDANQDEQVDFQEFISLVAIALKAAHYHTHKE
notes: S100A12, human, full length; expressed from a modified pQE60 vector with a stop codon inserted so that the protein has no histidine tag; Oligomeric state (dimer, tetramer, hexamer) depends on Ca2+ and Zn2+ in the sample; [U-15N] labelled for the NMR experiments; also called apo-S100A12; Ca2+-S100A12; source: E. coli, purified (Phenyl-Sepharose, ResQ ion exchange)
- stoichiometry N [1]: ~6
- stoichiometry N [2]: ~4
- stoichiometry N [3]: 4
- stoichiometry N [4]: 6
- stoichiometry N [5]: 2
- Kd [6]: 4.6 nM
- koff [6]: 0.00032 s⁻¹
- kon [6]: 68000 M⁻¹ s⁻¹
